The record followed here is article PMC2908078, “The YEATS family member GAS41 interacts with the general transcription factor TFIIF” (BMC Molecular Biology, 2010).

This test addresses T1, His-GAS41 (human, UniProt O95619 1-227).
T1 construct: source: E. coli M15 [pRep4], pQE30, purified (Ni-NTA)
Kind of test: pull-down; GST-RAP30 full length or fragments d1-d3 on glutathione-sepharose 4B as bait, purified His-GAS41 (10-20 ug) as prey, over night at 4°C; immunoblot. The settings on record: both partners purified. (In general: A western blot detects proteins with antibodies after separation by electrophoresis.)

T1 sequence (O95619 whole entry): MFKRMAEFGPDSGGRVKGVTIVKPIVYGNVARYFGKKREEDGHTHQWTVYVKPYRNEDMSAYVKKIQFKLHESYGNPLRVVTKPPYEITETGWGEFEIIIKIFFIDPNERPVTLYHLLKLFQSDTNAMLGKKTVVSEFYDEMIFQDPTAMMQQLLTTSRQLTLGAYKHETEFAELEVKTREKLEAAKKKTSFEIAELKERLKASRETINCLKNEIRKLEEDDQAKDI

B1: GST-RAP30 d3 (DNA binding site, aa169-249) (domain or fragment, human, UniProt P13984 169-249, looked up)
chain: KKEDGKRARADKQHVLDMLFSAFEKHQYYNLKDLVDITKQPVVYLKEILKEIGVQNVKGIHKNTWELKPEYRHYQGEEKSD
notes: source: E. coli BL21 (DE3), pGEX-4T1
For B1, the binding result is on record as “binds”.

B2: GST-RAP30 d2 (RAP74 binding domain and polymerase binding domain, aa1-169) (domain or fragment, human, UniProt P13984 1-169, looked up)
chain: MAERGELDLTGAKQNTGVWLVKVPKYLSQQWAKASGRGEVGKLRIAKTQGRTEVSFTLNEDLANIHDIGGKPASVSAPREHPFVLQSVGGQTLTVFTESSSDKLSLEGIVVQRAECRPAASENYMRLKRLQIEESSKPVRLSQQLDKVVTTNYKPVANHQYNIEYERKK
notes: as for B1
B2: the binding result was “binds”.
